# According to IntAct's records for PubMed 17571076:
# B1: Mitochondrial protein import protein ZIM17 (Saccharomyces cerevisiae), P42844 (parent)
# chain: MIPRTRTLLQSKIPITRYFARCWAPRVRYNVCRTLPAAALHTNIIAHNEVKKDDKKVHLGSFKVDKPKMMIAFTCKKCNTRSSHTMSKQAYEKGTVLISCPHCKVRHLIADHLKIFHDHHVTVEQLMKANGEQVSQDVGDLEFEDIPDSLKDVLGKYAKNNSENASQLPHPSQK
# Variants of: B1
# Details: with hsp77_yeasx SSC1, P0CS91
# Sequence of hsp77_yeasx SSC1, P0CS91 (P0CS91 whole entry): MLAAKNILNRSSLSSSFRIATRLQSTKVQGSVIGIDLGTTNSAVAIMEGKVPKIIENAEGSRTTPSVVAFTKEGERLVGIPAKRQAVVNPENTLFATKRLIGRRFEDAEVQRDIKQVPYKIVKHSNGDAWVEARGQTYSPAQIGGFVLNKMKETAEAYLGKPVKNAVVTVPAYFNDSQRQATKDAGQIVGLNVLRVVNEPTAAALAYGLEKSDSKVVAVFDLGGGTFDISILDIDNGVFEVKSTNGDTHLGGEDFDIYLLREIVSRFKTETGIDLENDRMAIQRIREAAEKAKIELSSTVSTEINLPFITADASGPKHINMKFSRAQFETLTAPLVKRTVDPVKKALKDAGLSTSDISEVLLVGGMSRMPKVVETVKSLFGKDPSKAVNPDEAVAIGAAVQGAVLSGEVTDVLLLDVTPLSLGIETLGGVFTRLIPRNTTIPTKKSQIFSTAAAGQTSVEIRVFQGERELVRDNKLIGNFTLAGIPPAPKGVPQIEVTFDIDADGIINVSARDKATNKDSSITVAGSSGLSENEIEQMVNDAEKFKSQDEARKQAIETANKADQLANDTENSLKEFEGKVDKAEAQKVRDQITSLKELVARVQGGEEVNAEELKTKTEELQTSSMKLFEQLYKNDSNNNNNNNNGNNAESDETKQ
row,Variant,effect of a mutation on the interaction
1,H107A,disrupting interaction
2,R106A,disrupting interaction

# Variants of: B1
# Details: with hsp77_yeasx SSC1, P0CS91
# Remark: another data set of the same source
row,Variant,effect of a mutation on the interaction
1,D111A,disrupting interaction
